We go through seven substances from paper PMC6336276.

In one series the test system is P69949. Kind of series: AUC; sedimentation velocity of Str. enolase alone, TME-SO4, 20°C, 37000 rpm; c(s) distribution, percent octamer and monomer; octamer to monomers and other species.
In series [1] the target is Str. enolase DB (Streptococcus pyogenes) (UniProt P69949). The description is as above.
The target in series [2] is Str. enolase DB no hexa-his tag (Streptococcus pyogenes) (UniProt P69949). Described as above.
Series [3] has as its target Str. enolase F137L/E363G (Streptococcus pyogenes) (UniProt P69949). Kind of series: AUC; sedimentation velocity of Str. enolase alone in different buffers (KPi with or without Mg(II), NaCl, imidazole; TME-SO4); octamer to monomers, dimers, tetramers.
Series [4] deals with Str. enolase 137/363–4 (Streptococcus pyogenes) (UniProt P69949). Kind of series: SPR; localized SPR (Nicoya OpenSPR); hexa-his-tagged Str. enolase 137/363–4 immobilised on a Ni-NTA chip, DPgn injected at successive concentrations in duplicate, ovalbumin as control; Pi, imidazole, NaCl buffer; close to 27 °C; one to two model (TraceDrawer 1.5).
For series [5] the target is unchanged. Kind of series: AUC; sedimentation velocity, TME-SO4, 20°C; five concentrations of 137/363–4 (1-11.7 μM) and DPgn (0.43-4.2 μM); global fit to an equilibrium constant in Sedphat.
Series [6] concerns the target Str. enolase DB (Streptococcus pyogenes) (UniProt P69949). Kind of series: dual polarization interferometry (DPI); Str. enolase adsorbed first on an unmodified silicon oxynitride chip, then DPgn injected; 3 μM each protein, 8 min injections, 25 μL/min/channel, 20°C; proteins in TME-SO4, wash buffer 10 mM phosphate.
Series [7] addresses Str. enolase 137/363–2 K252A K255A (Streptococcus pyogenes) (UniProt P69949). The description is as above.
For series [8], the target named is Str. enolase DB (Streptococcus pyogenes) (UniProt P69949). Kind of series: AUC; sedimentation velocity, 20°C, 37000 rpm, TME-SO4; DPgn alone, Str. enolase alone and the mixture at the same concentrations; shift of the s value of the DPgn peak (Sedfit c(s), DCDT+).

For orientation: stoichiometry N means a count of units in the complex or per binding partner. What is called Kd is the concentration at which binding is half-saturated. Higher therefore signals weaker binding.

As to Str. enolase 137/363–2 K252A K255A, in the series with P69949, the % monomer (from AUC) was found to be 70.4%.

As for Str. enolase DB, in the series on P69949, the “% monomer (from AUC)” value is listed as 0.4 (nil?).

In [1], “Str. enolase DB (from UniProt P69949 1-435) (enzyme)” returned a % octamer (from AUC) of 88% and a stoichiometry N of 8.

With Str. enolase DB no hexa-his tag, the % monomer (from AUC) with P69949 was 1.3%.

With “Str. enolase DB no hexa-his tag (from UniProt P69949 1-435) (enzyme)”, the % octamer (from AUC) in series [2] came to 81.6%.

Regarding “Str. enolase F137L/E363G (from UniProt P69949 1-435) (enzyme)”, the stoichiometry N in series [3] turned out to be 8.

canine plasminogen (natural protein): in [4], the KD1 (site 1 of a one to two model) worked out at 1.34 µM, the KD2 (site 2 of a one to two model) was 2.66 µM, the ka1 (site 1 of a one to two model) was found to be 1300 and the ka2 (site 2 of a one to two model) is 9600. Further, in [4], the kd1 (site 1 of a one to two model) is 0.0017, the kd2 (site 2 of a one to two model) was 0.026 and the stoichiometry N (DPgn per enolase monomer) was found to be 1.6. Also, in [5], the Ka was 340000 M⁻¹ and the Kd worked out at 3000 nM. For the same substance, the mass of enolase + DPgn layer in series [6] turned out to be 2.8 ng/mm^2. Also, the mass of enolase + DPgn layer in series [7] came to 5.3 ng/mm^2. The Ka in series [8] is less than 10000 M⁻¹.
